Legend:
[1] = molecular target: recombinant PI4KIIα (lab-made) (human) (UniProt Q9BTU6); assay: MST; fluorescently labelled PI4KIIα (5 nM) constant, unlabelled ligand protein titrated; Tris-based MST buffer; Monolith NT.115 pico; no PI
[2] = molecular target: recombinant PI4KIIα (lab-made) (human) (UniProt Q9BTU6); assay: MST; fluorescently labelled PI4KIIα (5 nM) mixed with 1 μM PI (micelles) before the ligand protein, unlabelled ligand titrated; Tris-based MST buffer; Monolith NT.115 pico

Sequence of UniProt Q9BTU6 (Q9BTU6 whole entry): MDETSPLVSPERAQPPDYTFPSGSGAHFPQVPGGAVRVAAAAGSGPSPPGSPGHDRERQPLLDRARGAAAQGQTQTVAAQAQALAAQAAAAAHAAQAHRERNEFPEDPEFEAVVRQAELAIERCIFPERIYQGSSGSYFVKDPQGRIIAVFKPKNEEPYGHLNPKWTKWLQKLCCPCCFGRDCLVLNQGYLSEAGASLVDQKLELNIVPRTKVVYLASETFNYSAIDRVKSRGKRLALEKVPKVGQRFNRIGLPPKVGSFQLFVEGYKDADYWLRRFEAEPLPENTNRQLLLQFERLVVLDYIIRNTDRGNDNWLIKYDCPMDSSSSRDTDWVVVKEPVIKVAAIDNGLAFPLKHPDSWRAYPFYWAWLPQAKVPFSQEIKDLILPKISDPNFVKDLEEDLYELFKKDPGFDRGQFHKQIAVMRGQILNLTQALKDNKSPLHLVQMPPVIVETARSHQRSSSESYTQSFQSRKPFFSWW

Kd [1] [nM]	Kd [2] [nM]	Substance
189	–	recombinant PITPα (#ab101666, Abcam) (from UniProt Q00169 1-270) (natural protein)
263	113	recombinant PITPβ (#LS-C794864, LSBio) (from UniProt P48739 1-271) (natural protein)

Reference: article PMC13260207
